The results in this text go back to the nanobody polyreactivity screen of Harvey et al. (2022).

A short description of this data set: yeast display, Sf9 membrane polyspecificity reagent, FACS + sequencing; frameworks hold sequencing errors. In short, it runs like this:
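Galactose-induced (36–48 hours) yeast carrying a synthetic nanobody display library were exposed to 10% biotinylated, detergent-solubilized Sf9 membrane reagent at 4 °C for 1 hour. FACS followed streptavidin microbead enrichment, using low and high (top ~1%) gates for expression (anti-HA) and reagent binding (streptavidin). Colony PCR, MiSeq 2 × 250 sequencing and CDR-length filtering followed. Labels for polyreactivity reflect the gate of origin.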
For the sequence “RVQLQESGGGLVQAGGSLRLSCAPSSTISRYFYMGWYRQAPGKEREFVASITYGASTNYADSVKGRFTISRDNAKNTVYLQMNSLKPEDTAVYYCNAKQQPYGGTDYDYWGQGTQVTVSS”, the “polyreactivity (PSR sort gate)” value is listed as “low polyreactivity”.

Regarding “RVQLQESGGGLVQAGGSLRLSCEASGTIFIRGDMGWYRQATGKEREFVATIDTGSNTYYADSEKGRFTISRDNAKNAVYLQMNCLKPGDTAVYYCVVDYQLSGRLRYWGQGTQVTLSS”, the “polyreactivity (PSR sort gate)” value is reported as “low polyreactivity”.

“RVQLVESGGGLVQAGGSLRLSCAASGFTIQRYAMGWYRQAPGKVRELVAGITGGGNTKYADSVKGRFTISRDNAKNTVYLQMNSLKPEDTAVYYCAARGGVPRGKFGYDYWGQGTQVTVSS”: the “polyreactivity (PSR sort gate)” value is “high polyreactivity”.

Turning to “VVQLVESGGGLVQAGGRLRLSCAASGIIFGRYAMGWYRQAPGKERELVASITGNGSTTYYADSVKGRFTISRDNAKNTVYLQMNSLKPDDTAGYYCAADIVVGSPSAEFDYWGQGTQVTVSS”, the “polyreactivity (PSR sort gate)” value was “low polyreactivity”.

For the sequence “YYADSVKGLFTISRDNAKNTVYLQMNSLNPEDTAVYYCNAGYYISFNPYDYWGQGTQVTVSS”, the “polyreactivity (PSR sort gate)” value is “low polyreactivity”.
